Test results as given in article PMC8313695.

Molecular target: p-ERK1/2 (Thr202/Tyr204)
Experiment: co-IP (IP: Flag, IB: p-ERK1/2), band intensity quantified in bar chart
Conditions: whole-cell extracts from MCF-7C5RN cells; without CGP57380; parent: est. 0.24; read off a plot

Substance “Flag-WTAP (wild type) (from UniProt Q15007) S341A” has a response of 0.11.
